± gives the standard error. Fewer inactive variants are shown than the library holds.
B1: glmS ribozyme (parent)
chain: AUAAAAGCGCCAGAACUACAGAAAUGUAGUUGACGAGGAGGAGGUUUAUCGAAUUUUCGGCGGAUGCCUCCAAA

Variants of: B1
Assay: self-cleavage kobs at 2500 uM GlcN6P; higher = faster cleavage; RNA array
Conditions: with glucosamine-6-phosphate
Outline: (§1)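 On sequenced MiSeq chips, barcoded ribozyme variants were made in situ by E. coli RNA polymerase and followed at 37 °C through a hybridised Cy3 probe. Glucosamine-6-phosphate was flowed in at 40 μM to 10 mM in HEPES/KCl/Mg(OAc)2 buffer. Exponential fits to normalised per-tile medians gave kobs, and weighted Michaelis–Menten fits gave kcat and KM.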

Variant | self-cleavage kobs at 2500 uM GlcN6P
C16U G32A G41A | 0.000133 ± 2.7e-05 s⁻¹
A6C C8U U45G U65C C67A | < 1e-05 s⁻¹
A15G U30C G51U U65C | < 1e-05 s⁻¹
C16A A39U C71A | 6.01e-05 ± 1.6e-05 s⁻¹
A6G A12C C16U | 0.000167 ± 3.6e-05 s⁻¹
A14C G29U A39C U46G U47A | < 1e-05 s⁻¹
U46G U65A C67G | 0.000131 ± 2.5e-05 s⁻¹
A39U A64C C70G | < 1e-05 s⁻¹
G9A G44U C68G C70G | < 1e-05 s⁻¹
A33U U55G C58G | < 1e-05 s⁻¹
A42U G59U C61G A64U C68A C70G | < 1e-05 s⁻¹
G32C G35C G43C C58U U69C | < 1e-05 s⁻¹
A36G A39U G62U | < 1e-05 s⁻¹
A36C A42C U54C | < 1e-05 s⁻¹
G29C U46G U55G | 3.45e-05 ± 1.5e-05 s⁻¹
A52C C58A C70U | < 1e-05 s⁻¹
U30C U45A U55A C67U | 0.00196 ± 0.00072 s⁻¹
C11A C16U A53U | 5.99e-05 ± 2.5e-05 s⁻¹
C11U U30C A39G A42G | 0.000103 ± 3.7e-05 s⁻¹
G29C U30C G32U A52C | < 1e-05 s⁻¹
A15G G44C | 0.00014 ± 4.2e-05 s⁻¹
G29U G32U A42G C71A | 4.56e-05 ± 1.7e-05 s⁻¹
A12G U30G U45G U46A C68U | < 1e-05 s⁻¹
A6U C11U C34G G40A A52G G60A C71A | < 1e-05 s⁻¹

Variant | self-cleavage kobs at 2500 uM GlcN6P
G26U G29U U55A C70A | 8.18e-05 ± 2.7e-05 s⁻¹
A12G G63A C67A | < 1e-05 s⁻¹
G38A A42G C68G | < 1e-05 s⁻¹
A12U G44U C70U | 5.27e-05 ± 1.8e-05 s⁻¹
A36G A48G U69C | < 1e-05 s⁻¹
C34U G35U G62C | < 1e-05 s⁻¹
A6U C8U G32A A33G G44A U45G | < 1e-05 s⁻¹
A12G A14U G41A G43A C50U G51A | < 1e-05 s⁻¹
U45G U46G A52G | 5.59e-05 ± 2.7e-05 s⁻¹
G62C A64G C70A | < 1e-05 s⁻¹
U31C A36U U47C | < 1e-05 s⁻¹
A42U G59U C70G | < 1e-05 s⁻¹
U30A U31A U57A C71U | 0.000133 ± 3.1e-05 s⁻¹
A6C A48U C61U C70G | < 1e-05 s⁻¹
A39G A52U C58A | < 1e-05 s⁻¹
A6G G29A C50G | 0.000103 ± 3.9e-05 s⁻¹
G13A G32C U45G | 4.68e-05 ± 1.9e-05 s⁻¹
C8U U30A U46G | < 1e-05 s⁻¹
G7C A15C G32U C58U C61U | < 1e-05 s⁻¹
A53C U57G C67U | 8.03e-05 ± 2.5e-05 s⁻¹
G37U G44C U57C C67A | < 1e-05 s⁻¹
A39G G44A | 0.00105 ± 0.00035 s⁻¹
A6G A33U C58A | < 1e-05 s⁻¹
A36U U65A C68U | < 1e-05 s⁻¹

Variant | self-cleavage kobs at 2500 uM GlcN6P
C16U U30A U65A | 8.89e-05 ± 1.9e-05 s⁻¹
A6U C58G C70A | 0.00016 ± 5.2e-05 s⁻¹
G7U C8U A52G | < 1e-05 s⁻¹
C8A G13A U56C | < 1e-05 s⁻¹
C34U U45G C70A | < 1e-05 s⁻¹
G7C C11U U54A | < 1e-05 s⁻¹
G35C C50A C67G | < 1e-05 s⁻¹
A14U G29U C67U | 9.48e-05 ± 2.4e-05 s⁻¹
C10U U30A U46G | < 1e-05 s⁻¹
G37U A52U C71U | < 1e-05 s⁻¹
C11A U47G C61G | < 1e-05 s⁻¹
U31G A52C C58G | < 1e-05 s⁻¹
G37C C50G U54G G63U A64U | 6.2e-05 ± 3e-05 s⁻¹
A42G G51C G62A | < 1e-05 s⁻¹
G13U U54A U65A | 5.74e-05 ± 1.5e-05 s⁻¹
G44C A48G | < 1e-05 s⁻¹
G29C A48U G60C | < 1e-05 s⁻¹
A12G U56A U57C | < 1e-05 s⁻¹
C8A G29C G37C A39U G43A U45G G51A | < 1e-05 s⁻¹
C11G G41A G62U C68U | < 1e-05 s⁻¹
C16U G51U A52C C68A C70U C71U | < 1e-05 s⁻¹
C8A G35C A53U G60A | < 1e-05 s⁻¹
U31G G38C G43U U47A A48C | < 1e-05 s⁻¹
U31A G41U C70U | 0.00307 ± 0.00088 s⁻¹

Variant | self-cleavage kobs at 2500 uM GlcN6P
C10A G63A C71U | < 1e-05 s⁻¹
C8U C11G C58A | < 1e-05 s⁻¹
A15C U47G C68G | 5.59e-05 ± 1.6e-05 s⁻¹
A48C U49A U55C | < 1e-05 s⁻¹
G40U C50A U55C | < 1e-05 s⁻¹
C10G G44U C50G | < 1e-05 s⁻¹
A24C G40U | 0.00193 ± 0.0007 s⁻¹
A14G G63C A64U | < 1e-05 s⁻¹
G32U A42U C68A | < 1e-05 s⁻¹
A15G U31G G32U U45A | 0.000424 ± 0.00012 s⁻¹
A12G U30G U46G | < 1e-05 s⁻¹
A15G C58U C70U | 3.63e-05 ± 1.4e-05 s⁻¹
G37U G38U A39C | < 1e-05 s⁻¹
A15U C61U G62U | < 1e-05 s⁻¹
A42U U45G A53C | 0.000111 ± 2.6e-05 s⁻¹
A39U G41U C50G | < 1e-05 s⁻¹
A15U A33C U45G G51U U55G | < 1e-05 s⁻¹
C10A C16G U31C G37C C58A G59U | < 1e-05 s⁻¹
G40U G43U U54A | < 1e-05 s⁻¹
C16U G35U G38U C50A | < 1e-05 s⁻¹
A12G A15U U54C C67G | 5.41e-05 ± 1.9e-05 s⁻¹
G7U C11G C16G G32A A53U | < 1e-05 s⁻¹
A6U C16G G40C G41A C70A | < 1e-05 s⁻¹
C10U C67G C68U | 0.000126 ± 4.8e-05 s⁻¹

Variant | self-cleavage kobs at 2500 uM GlcN6P
U47C A52U A64G | 3.84e-05 ± 1.6e-05 s⁻¹
C34A A39U C50A A53G C68U | < 1e-05 s⁻¹
C10U A36U G51C A53C | < 1e-05 s⁻¹
C16U U56C G63A G66U | < 1e-05 s⁻¹
G35A A48C G51A U56G | < 1e-05 s⁻¹
C34G U46A U47A U65C C68G | < 1e-05 s⁻¹
G40A G62U C70G | < 1e-05 s⁻¹
A14G U57A U65G | 4.18e-05 ± 1.4e-05 s⁻¹
A15C G35C U69C | < 1e-05 s⁻¹
A6U A14G U56A | 0.000586 ± 0.00023 s⁻¹
A15C G41U U57C A64U | < 1e-05 s⁻¹
A12C G66U C70A | 0.000107 ± 2.6e-05 s⁻¹
C11A U49G | < 1e-05 s⁻¹
G21A A48C | 0.000242 ± 7.9e-05 s⁻¹
G13U G37U U55G G66U | < 1e-05 s⁻¹
U31A U46C A53G C70A | 4.56e-05 ± 1.7e-05 s⁻¹
G9C G38A A52U | < 1e-05 s⁻¹
A6U G38A C50G C67U | 6.17e-05 ± 1.7e-05 s⁻¹
A12C U65G U69C | 0.000703 ± 0.0002 s⁻¹
G41A U47C G51C | < 1e-05 s⁻¹
A12C C58U G60U | < 1e-05 s⁻¹
A15U G38U U69G | 0.000183 ± 4.2e-05 s⁻¹
C10U G60C G62U | < 1e-05 s⁻¹
A15G G59A C70U | 4.76e-05 ± 1.4e-05 s⁻¹

Variant | self-cleavage kobs at 2500 uM GlcN6P
G32A U49A U65G | < 1e-05 s⁻¹
A33U A48G U55G | < 1e-05 s⁻¹
C11U A39G A42G | 0.00125 ± 0.00043 s⁻¹
A42U G43U C50G | 7.64e-05 ± 3.6e-05 s⁻¹
G40U U54G C70G C71A | 6.39e-05 ± 1.8e-05 s⁻¹
C16U G43A U49A | < 1e-05 s⁻¹
U30G G32A A42U A48G | < 1e-05 s⁻¹
A53G U55G G66U | 0.00112 ± 0.00027 s⁻¹
G29U G32C A42C U57G | < 1e-05 s⁻¹
U30A G37C U65G G66U | < 1e-05 s⁻¹
U45G U49A U55C | < 1e-05 s⁻¹
C11U A15C G41U G60U | < 1e-05 s⁻¹
A33G A53C C58A | < 1e-05 s⁻¹
U30G G59C U65G | < 1e-05 s⁻¹
C50A U55G C67G | 9.38e-05 ± 3.7e-05 s⁻¹
A36U G38A U47C | < 1e-05 s⁻¹
U30A A33U C58G U69C | 0.000281 ± 8.6e-05 s⁻¹
A42G U65A G66U | 7.25e-05 ± 2.4e-05 s⁻¹
G13A A15C C50G C70A | 0.000129 ± 2.5e-05 s⁻¹
G41U A42C C70U | 0.000121 ± 2.6e-05 s⁻¹
G40U A64G C71A | 0.00288 ± 0.0008 s⁻¹
C16A C34U G51U | < 1e-05 s⁻¹
C16U U46G U47C C70U | 0.00139 ± 0.00038 s⁻¹
C34A G43A C50G U54C | < 1e-05 s⁻¹

Variant | self-cleavage kobs at 2500 uM GlcN6P
C11G G29A C70U | 6.76e-05 ± 3.2e-05 s⁻¹
C11U G29A U30G U55A G63C A64G | < 1e-05 s⁻¹
A39U A52C C67G U69G | < 1e-05 s⁻¹
C34G G38A C70G | 5.16e-05 ± 2.4e-05 s⁻¹
C10G A12C G44A C68U | < 1e-05 s⁻¹
G37A A39C G59C | < 1e-05 s⁻¹
A22C C34G A42C C50U G66U C68U U69G C70G C71U | < 1e-05 s⁻¹
G13A G51C C67G | < 1e-05 s⁻¹
A33U G37C G38C G43A G51A | < 1e-05 s⁻¹
G9U G35A A36G G63U | < 1e-05 s⁻¹
G40U U57A C61G | < 1e-05 s⁻¹
C11U U30G C68G | < 1e-05 s⁻¹
C16U C50G U54A | 9.89e-05 ± 3.1e-05 s⁻¹
G38A A53G G63U | < 1e-05 s⁻¹
A15C U31G A53C | 0.000196 ± 3.5e-05 s⁻¹
C11G U30G U49A | < 1e-05 s⁻¹
C11G G29C A36G U69G | 0.001 ± 0.00046 s⁻¹
C11U C16G G43A | < 1e-05 s⁻¹

Variants of: B1
Assay: self-cleavage kobs at 10000 uM GlcN6P; higher = faster cleavage; RNA array
Conditions: with glucosamine-6-phosphate
Outline: as §1

Variant | self-cleavage kobs at 10000 uM GlcN6P
C16U G32A G41A | 0.00033 ± 9.1e-05 s⁻¹
A15G G44C | 0.000166 ± 3.2e-05 s⁻¹
G7C A15C G32U C58U C61U | < 1e-05 s⁻¹
A39G G44A | 0.000926 ± 0.00033 s⁻¹
C34U U45G C70A | < 1e-05 s⁻¹
G40U G43U U54A | < 1e-05 s⁻¹
C34G U46A U47A U65C C68G | < 1e-05 s⁻¹
A14G U57A U65G | 6.87e-05 ± 1.5e-05 s⁻¹
A6U A14G U56A | 0.00142 ± 0.00018 s⁻¹
G9C G38A A52U | < 1e-05 s⁻¹
A53G U55G G66U | 0.00144 ± 0.00029 s⁻¹
A36U G38A U47C | < 1e-05 s⁻¹

Reference: the supplement of paper PMC7125110
